B1: SAGA complex/transcription factor TFIID complex subunit TAF12 (Saccharomyces cerevisiae), Q03761 (parent)
chain: MSSNPENSGVNANNNTGTGNADAITGAQQNMVLQPRQLQEMAAKFRTLLTEARNVGETTPRGKELMFQAAKIKQVYDALTLNRRRQQAAQAYNNTSNSNSSNPASIPTENVPNSSQQQQQQQQQTRNNSNKFSNMIKQVLTPEENQEYEKLWQNFQVRHTSIKEKETYLKQNIDRLEQEINKQTDEGPKQQLQEKKIELLNDWKVLKIEYTKLFNNYQNSKKTFYVECARHNPALHKFLQESTQQQRVQQQRVQQQQQQQQQQQQQQQQQQQQQQQRQGQNQRKISSSNSTEIPSVTGPDALKSQQQQQNTITATNNPRGNVNTSQTEQSKAKVTNVNATASMLNNISSSKSAIFKQTEPAIPISENISTKTPAPVAYRSNRPTITGGSAMNASALNTPATTKLPPYEMDTQRVMSKRKLRELVKTVGIDEGDGETVIDGDVEELLLDLADDFVTNVTAFSCRLAKHRKSDNLEARDIQLHLERNWNIRIPGYSADEIRSTRKWNPSQNYNQKLQSITSDKVAAAKNNGNNVASLNTKK
partner: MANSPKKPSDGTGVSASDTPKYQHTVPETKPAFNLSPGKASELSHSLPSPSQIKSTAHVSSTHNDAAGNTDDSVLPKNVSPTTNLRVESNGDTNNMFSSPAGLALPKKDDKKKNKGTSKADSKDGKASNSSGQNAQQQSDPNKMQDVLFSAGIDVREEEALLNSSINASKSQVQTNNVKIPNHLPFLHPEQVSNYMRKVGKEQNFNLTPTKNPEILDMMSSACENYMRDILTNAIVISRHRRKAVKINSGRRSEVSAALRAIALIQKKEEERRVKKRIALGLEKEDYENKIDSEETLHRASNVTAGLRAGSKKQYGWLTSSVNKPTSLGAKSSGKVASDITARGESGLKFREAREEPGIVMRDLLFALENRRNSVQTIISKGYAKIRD

Variants of: B1
Conditions: with taf4_yeast TAF4, P50105

Variant | effect of a mutation on the interaction
L446A | disrupting interaction
L449A | disrupting interaction

From IntAct's records for PubMed 11473260
